Broadly, the kcat is the number of substrate molecules converted per active site and unit of time at saturation. Broadly, the kcat/Km is the turnover number divided by the Michaelis constant. A word on the Km: it is the substrate concentration at which the rate is half of its maximum.

Results on four proteins are retold here after paper PMC4387078.

Substrate in data set [1]: O=C1O[C@H]([C@@H](O)CO)C(O)=C1O
Nature of the data set: purified protein. Format: biochemical, Anopheles gambiae. Particulars: 0.1 M sodium phosphate, pH 7.0, allosteric sigmoidal fit.

Substrate in data set [2]: Oc1ccc(O)cc1
Nature of the data set: spectrophotometric laccase assay, product formation. Format: biochemical, Anopheles gambiae. Particulars: pH 7.0.

Substrate in data set [3]: NCCc1ccc(O)c(O)c1
The description is as above. Format: biochemical, Anopheles gambiae. Particulars: pH 7.0.

Substrate in data set [4]: Oc1ccc(O)cc1
The data set is described as above. Particulars: pH for this enzyme not stated. Format: biochemical, Trametes versicolor.

Substrate in data set [5]: NCCc1ccc(O)c(O)c1
The description is as above. Format: biochemical, Trametes versicolor. Particulars: pH for this enzyme not stated.

Substrate in data set [6]: O=C1O[C@H]([C@@H](O)CO)C(O)=C1O
Kind of data set: purified protein. Particulars: 0.1 M sodium phosphate.

Substrate in data set [7]: Oc1ccc(O)cc1
Nature of the data set: spectrophotometric laccase assay, product formation. Format: biochemical, Drosophila melanogaster. Particulars: pH 7.0.

Substrate in data set [8]: NCCc1ccc(O)c(O)c1
The data set is described as above. Format: biochemical, Drosophila melanogaster. Particulars: pH 7.0.

Where [9] appears, read: pH 7.0, allosteric sigmoidal fit.

B1: AgMCO1T (Anopheles gambiae) (protein)
chain: VEPEEGVDFYEELSYDNHPCKRACTLGRKPETCYYRFRLEWYRTLSKACYNCPYNATDCERPHCITGDGVRRNVAVINRMMPGPAIEVCENDIIVVDVENHLMGESTTIHWHGLHQRRTPYMDGVPHVSQCPISPGTTFRYTFRADNPGTHFWHSHTGMQRGDGAFGALIIRKDNDIQELLYDHDLSEHVITVQDWGHEQGVSLFASHHHSTGDNKPPNLLINGRGKYFQRFAKTTPLTTTTTSTEEPALEPETIMAVEPESTTLMEELPTTTVPITDAITPDDTELLQASSNTNLKTVLRAEEVRHRTKRQSRTVNFNAIVVPESKHIPLKVFHVDKGRRYRFRLINAEFLNCPVELSIENHNLTVIASDGFGIQPLEDLGSFVSYAGERFDFIVKANQPIGNYLIRFRGLMDCDERFTSAYQFAVLRYRGAPTDTEYESWPPYDYEAPGVQLNSLNRGPGAENVITIAETSALDQEDLLLLRNETDYKFYVYYDFYGKDNPHFHVPSLYGFQQVVNNTNRLYTPQLNHISMRMPPVPFLPGKDVLDESQFCNETSVRDRNCRQEFCECSHVLQIPLHATVEMVMIDEGFTFDANHPFHLHGHAFRVVGMDRVSRNTTIEDIRRMDEEGRLPRRLKRAPIKDTVTIPDGGYTIIRFIANNPGYWLFHCHIEFHAEIGMSLVLKVGDSSEMLPAPANFPTCYDFKPKLGQLGSGGA
As for B1, in data set [1], the K0.5 amounted to 0.12 ± 0.02 mM, the kcat amounted to 15.3 ± 1.4 s⁻¹ and the kcat/Km came to 126000 M⁻¹ s⁻¹. Further, in data set [2], the Km came out at 31.9 ± 3.75 mM, the turnover number (kcat) is 1.58 ± 0.13 s⁻¹ and the catalytic efficiency (kcat/Km) was found to be 50 M⁻¹ s⁻¹. In data set [3], the Michaelis constant (Km) came out at 35.2 ± 3.59 mM, the kcat worked out at 0.258 ± 0.0183 s⁻¹ and the specificity constant (kcat/Km) is 6.67 M⁻¹ s⁻¹.

B2: TvLac-α (Trametes versicolor) (protein)
chain: AIGPVASLVVANAPVSPDGFLRDAIVVNGVVPSPLITGKKGDRFQLNVDDTLTNHSMLKSTSIHWHGFFQAGTNWADGPAFVNQCPIASGHSFLYDFHVPDQAGTFWYHSHLSTQYCDGLRGPFVVYDPKDPHASRYDVDNESTVITLTDWYHTAARLGPRFPLGADATLINGLGRSASTPTAALAVINVQHGKRYRFRLVSISCDPNYTFSIDGHNLTVIEVDGINSQPLLVDSIQIFAAQRYSFVLNANQTVGNYWVRANPNFGTVGFAGGINSAILRYQGAPVAEPTTTQTTSVIPLIETNLHPLARMPVPGSPTPGGVDKALNLAFNFNGTNFFINNATFTPPTVPVLLQILSGAQTAQDLLPAGSVYPLPAHSTIEITLPATALAPGAPHPFHLHGHAFAVVRSAGSTTYNYNDPIFRDVVSTGTPAAGDNVTIRFQTDNPGPWFLHCHIDFHLDAGFAIVFAEDVADVKAANPVPKAWSDLCPIYDGLSEANQ
Regarding B2, in data set [4], the Km is reported as 0.038 ± 0.006 mM, the catalytic constant (kcat) stood at 32.7 ± 1.22 s⁻¹ and the kcat/Km was 861000 M⁻¹ s⁻¹. Also, in data set [5], the Km amounted to 0.055 ± 0.005 mM, the kcat turned out to be 11.5 ± 0.18 s⁻¹ and the kcat/Km was 210000 M⁻¹ s⁻¹.

B3: AgMCO3 (Anopheles gambiae) (protein)
chain: QSWLNTLLEQSNGTLDVSTFPGEQCLRECDNTQPRICHFSWTMEHYHVMGPACRDCAKGNHTDCYHPACITADGVERGVMSLNRKIPGPTISVCRHDLIVVDITNAMAGTSAAIHWHGLHQRATPYMDGVPFITQCPIGFGNTFRYAFLATEPGTQFYHSHSGHHKVNGHYGALIVREPKRVDPNGDLYHYDTPAHVILGSDWMHIDGEMFMPGLPSAGGIMPINLLINGKGTYHDPKKNETTQTPLEVYTVRRGARFRFRFINAASHVCPLQLQIEDHMMEVIASDSFHLQPRKVDTLVSTSGERYDFVLEANGVKDTYWVRLRSLGPCADLQLEQFAVLRYTTGPFINDAFPTGAPPTYEEPFRNVATANHPNATCGRPEFGDYCITDFQAYDTDEDVINGVPDHQLTFGFYNYPVSFESMFESNRYEHYMNIYGSVMMQGAINNISLAYPPFSLLTQPEKIRDDTFCDEDNRPDSCSDRQLCTCTHRVKINLGDIVELYILDLTPSVNDLNHPFHLHGYQMFVMEMSQDRRVPITLEIAQNIARQRLLSRNTVALPPRKDTVSIPSRGYARVRFRADNPGFWLMHCHYEWHTAVGMALVLQVGETSEMVKAPADFPKCDSYTPAVGHLLQGSL
As to B3, in data set [6] (pH 7.0, Michaelis-Menten fit), the K0.5 is reported as 0.64 ± 0.26 mM, the catalytic constant (kcat) came to 2.47 s⁻¹ and the kcat/Km worked out at 3880 M⁻¹ s⁻¹.

B4: DmMCO1T (Drosophila melanogaster) (protein)
chain: DIWTAEWYRNHPCNRDCQVGAEPMTCRYKFVVEWYQTFSKACYDCPRNLTDCSRPHCVMGDGLERSITVVNRMMPGPAIEVCEGDEIVVDVKNHLLGESTSIHWHGLHQKKTPYMDGVPHITQCPITPHATFRYSFPADLSGTHFWHSHTGMQRGDGVFGALIIRKPKTAEPHGGLYDFDLSEHVMIVQDWIHDTGASIFSYHHHSRGDNKPHNLLVNGKGRYYNRIWAEAKQAHRRAEERTTQPVEPLPKSQVDFVQTLPRQARLAKTNTTKLFPVNSRQKRGNLNEIPLELVPHQIYTVRRGFRYRFRIINAEYLNCPIVVSIDGHNLTAINSDGFDIEAMDVGSIVTYSGERFDFVLNANLEVGNYWIRLKGLMDCSEVFTSAFQVAILRYEGAPDEEPTAELSYGHKAEGIELNVMNRGPGYPDTKTVAEMRALPIYDHVSGIDHDTLKPEADYKFFIYYDFYTKNNPDFHDKDLYAMDMEMTQQNRLYTPQLNHITLNFPSLALLPSRSQLKDSDFCNETSLMDQGIDCRQEFCKCHHVLQVPLGAVVEMIIVDEGFQYYANHPFHLHGNAFRVMGLERLGENVTVEMIKQLDQFNLLKRNLDNPPVKDTVTIPDGGYTIIRFEASNPGYWLFHCHIEFHAEIGMALVFKVGNDDQMVPVPENFPTCGDYNPDLRSDGGTTEDSGSSKPITATPPNTGGGGSG
On to B4, for which, in data set [6] (setting [9]), the K0.5 came to 0.29 ± 0.05 mM, the turnover number (kcat) was determined as 42.8 ± 5.25 s⁻¹ and the kcat/Km is 147000 M⁻¹ s⁻¹. For the same protein, in data set [7], the Michaelis-Menten constant (Km) amounted to 14.4 ± 0.91 mM, the kcat amounted to 1.03 ± 0.035 s⁻¹ and the catalytic efficiency (kcat/Km) stood at 66.7 M⁻¹ s⁻¹. In data set [8], the Michaelis-Menten constant (Km) is given as 7.0 ± 0.93 mM, the kcat was determined as 0.317 ± 0.0183 s⁻¹ and the kcat/Km was found to be 50 M⁻¹ s⁻¹.
